Source: the DeepSol protein solubility set

test: soluble on expression in E. coli; label from the status in PepcDB or PDB records

Row | Sequence | soluble on expression in E. coli
1 | MSDASLKTYQKQWAYQKYWVMAHSQQHYNALRELFKGNQWSEEKVLTFHCLIEEAQAIPPTVKSLRTAYQHVWGYFKKVASQEEKDHFKDLDAQLETKSEEMLCFLQEMTAHYQPSYLLSCRLITKGP | not soluble
2 | MSDFGNPLKKFKLVFLGEQSVGKTSLITRFMYDSFDNTYQATIGIDFLSKTMYLEDRTVRLQLWDTAGQERFRSLIPSYIRDSTVAVVVYDITNSNSFHQTSKWIDDVRTERGSDVIIMLVGNKTDLSDKRQVTTDEGERKAKELNVMFIETSAKAGYNVKQLFRRIAGALPGIIKDDPVEPPNVVTMDPIRQRQIVTDEGSCWC | not soluble
3 | MSDGSVERGTKRAEDSLATHQLTVQYKRYYIDVNENTRGRYIKIAELGTNYKSRIILSIVAAKAIVSEISKMLALIDEPSTGEHAPKESSLIKSETLNVDGRKFYVDLKENVRGRFLRIAQMPMNPRQTRQQIAIPSDGIAEIHKVLTEYLAKFGEGHEQENTNTPKITAENKSFLFHSGKNDRGEFVRISEIKLNSGYRNAITVPMSALVDFRKELDNIIANQGK | not soluble
4 | MSDKIIHLTDDSFDTDVLKADGAILVDFWAEWCGPIEESDDRRYDLVGPCKMIAPILDEIADEYQGKLTVAKLNIDQNPGTAPKYGIRGIPTLLLFKNGEVAATKVGALSKGQLKEFLDANLA | soluble
5 | MSDLMQKENIVVMLTKKGFLKRLSQNEYKLQGTGGKGLSSFDLNDGDEIVIALCVNTHDYLFMISNEGKLYLINAYEIKDSSRASKGQNISELINLGDQEEILTIKNSKDLTDDAYLLLTTASGKIARFESTDFKAVKSRGVIVIKLNDKDFVTSAEIVFKDEKVICLSKKGSAFIFNSRDVRLTNRGTQGVCGMKLKEGDLFVKVLSVKENPYLLIVSENGYGKRLNMSKISELKRGATGYTSYKKSDKKAGSVVDAIAVSEDDEILLVSKRSKALRTVAGKVSEQGKDARGIQVLFLDNDSLVSVSKFIK | soluble
6 | MSDLNNAIQGILDDHVARGVVGVSLALCLPGEETSLYQSGYADKFNKMPMTGDHLFRIASCTKSFIATGLHLLVQDGTVDLDEPITRWFPDLPKAAQMPVRILLNHRSGLPDFETSMPMISDKSWTAQEIVDFSFRHGVQKEPWHGMEYSNTGYVLAGMIIAHETGKPYSDHLRSRIFAPLGMKDTWVGTHETFPIEREARGYMHAAADDENPQWDVSGAGDPVDGVWDSTEWFPLSGANAAGDMVSTPRDIVKFLNALFDGRILDQKRLWEMKDNIKPAFFPGSNTVANGHGLLLMRYGSSELKGHLGQIPGHTSIMGRDEETGAALMLIQNSGAGDFESFYLKGVNEPVDRVLEAIKNSRS | soluble
7 | MSDLVSYHLDDGVATLTLNNGKVNAISPDVIIAFNAALDQAEKDRAIVIVTGQPGILSGGYDLKVMTSSAEAAINLVAQGSTLARRMLSHPFPIIVACPGHAVAKGAFLLLSADYRIGVAGPFSIGLNEVQIGMTMHHAGIELARDRLRKSAFNRSVINAEMFDPEGAMAAGFLDKVVSVEELQGAALAVAAQLKKINMNAHKKTKLKVRKGLLDTLDAAIEQDRQHML | soluble
8 | MSDNLVLPTYDDVASASERIKKFANKTPVLTSSTVNKEFVAEVFFKCENFQKMGAFKFRGALNALSQLNEAQRKAGVLTFSSGNHAQAIALSAKILGIPAKIIMPLDAPEAKVAATKGYGGQVIMYDRYKDDREKMAKEISEREGLTIIPPYDHPHVLAGQGTAAKELFEEVGPLDALFVCLGGGGLLSGSALAARHFAPNCEVYGVEPEAGNDGQQSFRKGSIVHIDTPKTIADGAQTQHLGNYTFSIIKEKVDDILTVSDEELIDCLKFYAARMKIVVEPTGCLSFAAARAMKEKLKNKRIGIIISGGNVDIERYAHFLSQ | soluble
9 | MSDTLLLTVLLRHDQSKNLDEIQARMKAMDWWERFPGEGVEIVSWTVAMGLGQIVTLRLPPALLPRVNVELERSAWGVFRTECYPTYDFVPVRETIRERVRTGGQ | not soluble
10 | MSDTSYKLGITKTFPCNYLPDQQERLLIAVDERLHNSESYGWLMTQGFRRSGDQSYRPSCPNCNACQSIRVLTSDFLPSKSQKRSKKRNSHFIIKQSSQLKDSYYPLFENYINTLHQDGSMYPASFQQFESFLSCNLTQQLFIETWAPANEENGPKEDKLVCVAVTDVLSNGLSAVYTFYHPDYKANGLGVFSILTQLSLSQQMSLPYLYLGYQIDECQKMNYKDRYFPFERFIDGQWLINTKPSVNKAKIAKLEHHHHHH | not soluble
11 | MSDVAVAADTTETPAAPTKASKATKASKATKASKATKAKTTKVPMVKADAAHPPFINMVTEAISSIKDRKGPSRAAILKYITTKYTLGDQANKINAHLRKALNKGLESNAFVQASGNGANGRFRLAEKTASVAKSPAAAKKDATGEKKATTTVAKKAATGEKKATTTVAKKAATGEKKATTTVAKKAAAGDKAKKTEVKVKKVKSPKKIAKSPVNKVTKSPVKKIAKSSSMKAAPKKAAAKPAKKAPAAAPEA | soluble
12 | MSDVMADRTPPHNIEAEQAVLGAILIDQDALTSASELLVPDSFYRTKHQKIFEVMLGLSDKGEPIDLVMMTSAMADQGLLEEVGGVSYLAELAEVVPTAANVEYYARIIAEKALLRRLIRTATHIVSDGYEREDDVDGLLNEAEKKILEVSHQTNAKAFQNIKDVLVDAYDKIELLHNQKGEVTGIPTGFTELDKMTAGFQRNDLIIVAARPSVGKTAFSLNIAQNVATKTDENVAIFSLEMGADQLVMRMLCAEGNIDAQRLRTGSLTSDDWAKLTMAMGSLSNAGIYIDDTPGIKVNEIRAKCRRLKQEQGLGMILIDYLQLIQGSGKSGENRQQEVSEISRTLKGIARELQVPVIALSQLSRGVESRQDKRPMMSDIRESGSIEQDADIVAFLYREDYYDRETENKNTIEIIIAKQRNGPVGSVELAFVKEFNKFVNLERRFEDGHAPPA | not soluble
13 | MSEAAIAKKETLVQAAAEKFESAASVVIVDYRGLTVEEVTNLRKQLRDAGVEMKVIKNSILSRAAKKVGLDGLDEVFTGPTAVAFSNDDVVAPAKIIDEFAKDAKALEIKGGVIEGKVSSVEQITALAKLPNREGLLSMLLSVLQAPVRNVAYAVKAVAEKNEEVA | not soluble
14 | MSEDRSSNGQKSWLGKLTQAFVHEPKNRQELLELLREAHQNKLLDSEALAIVEGAIQVADLQVRDIMVPRSQMISIKATQTPREFLPAVIDAAHSRYPVIGESHDDVLGVLLAKDLLPLILKADGDSDDVKKLLRPATFVPESKRLNVLLREFRANHNHMAIVIDEYGGVAGLVTIEDVLEQIVGDIEDEHDVEEDSYIKPLPSGDFLVKALTPVENFNEFFDSAFSDDEFDTVGGLVMNAFGHLPKRNEITEIGAYRFRILSADSRRIHLLRVTPISRP | not soluble
15 | MSEDYADLHDPNAEYTMRELSAETMGADSGRPAPRDLEITDIQTTMVDGNFPWTLVRVYTDAGVVGTGEAYWGAGVPELIERMTPFVVGENPLDIDRLFEHLVQKMSGEGSVEGVTVTAISGIEVALHDLAGKVLGVPAYQLLGGKYRDEVRVYCDCHTAAEADPEACADEAERVVDDLGYDALKFDLDVPSGLEKDRANRHLRPGEIRHKADIVAAVTERVRDRADVAFDCHWTFSGGSAKRLAAELEAYDVWWLEDPVPPENLDVQASVTESTATPIAVGENRYRVTEARRLIENQAVDIVAPDLPKVGGMRETRKIADVANQYYVPVAMHNVASPVATMASAHVGAAIPNALAVEYHSYELGWWSDLVAEDVIEDGSIEVPERPGLGITLDMDAVEEHMVDGETLFDEA | soluble
16 | MSEEAEAGPSPKVNGENGNGTNTFDDLYVDDKMRRMIVDLQRQWLTDYHDSREKSLVALTEKLHQEFMEDQERVRRDLLVQFKIELDQTKEELEKKHAENLKEEIEKLSEKHQRELAVAKKKQWCWQCNSEAIYHCCWNTAYCSVECQQGHWQIHRKFCRRKKSNGGAPGPVQPIAEPTQSQQ | soluble
17 | MSEEKKDSSRPPVRNYLKQIDDFFEQTPLRNVIADLNHFFQKGNRLLTFPVDLYEVGEELVVTAELPGIQKEQIQIEIQSEYLKVSVKEEILEEEEQTSHNYYRRERSISEASRLIKLPYSINKKAAKASYQNGVLEIRAPKLPQQHDILSID | not soluble
18 | MSEESNDDKKPTTKFELERETELRFEVEASQSVQLELLAGMAEIFGTELTRNKKFTFDAGAKVAVFTWHGCSLQLSGRTEVAYVSKDTPMLLYLNTHTALEQMRRQAEKEEERGPRVMVVGPTDVGKSTVCRLLLNYAVRLGRRPTYVELDVGQGSVSIPGTMGALYIERPADVEEGFSIQAPLVYHFGSTTPGTNIKLYNKITSRLADVFNQRCEVNRRASVSGCVINTCGWVKGYGYQALVHAASAFEVDVVVVLDQERLYNELKRDLPHFVRTVLLPKSGGVVERSKDFRRECRDERIREYFYGFRGCFYPHAFNVKFSDVKIYKVGAPTIPDSCLPLGMSQEDNQLKLVPVTPGRDMVHHLLSVSTAEGTEENLSETSVAGFIVVTSVDVEHQVFTVLSPAPRPLPKNFLLIMDIRFMDLK | soluble
19 | MSEEWEPKIVGFCCNWCTYGGADTAGVGRMQYPPSIRIIRVMCSGRIEPSFILKAFKEGADGVFIGGCHLGDCHYDAGNYKWQRRVMMLYDMLDELGIGRERVLHEWISASEGEKFQTKMNEIYDRIKALGPCTLNENLK | not soluble
20 | MSEISIKRAHENEKDAEEDMEPATKKIKSDDVTEEQEKPEIVEKAEKVKSMKKEEAGSLKSPPNDEMESEFTHVLNELSKQKETIKKLLDDLRADNKKRKTHNIRTIFQRKD | not soluble
21 | MSEKQSNEQVEAFLNKESQWQEEYKYLRALIFNETELEEAYKWMHPCYTLNNKNVVLIHGFKNYVALLFHKGAILEDKYHTLIQQTEKVQAARQLRFENLTEIQARTEEIKYYLAEAIKAEKAGKKVEMKKTEEYVIPKELEAKFEEMPQLESSFYKLTPGRQHQYIYHIGQAKRSETKQKRVEKYINQILEGKGMHDK | not soluble
22 | MSEKWIPEIMTPLKQDIVKMPEIIRQASGIKIFGRKIKSIIFTTDIAIIRNTDAQAVIAVYPFTPHPAITKGIIEAADIPVFSGVGGGLTQGMRSAYMSLFAEAQGSMGVVLNGPTPIETIKMVDEAIDIPIISTVTSIHTPIDEKLAAGVDMINISAGKDTAATVRYFRGKYPELPIIATGGPTESSIHETIIAGANAITYTPPSNGELFSKKMKKYREQEKATDEE | soluble
23 | MSELFSNDNIFLNVNVNSQNEAIEKAGKALVDSGAVTDAYIQAMKDREQVVSTFMGNGLAIPHGTDEAKTNVIHSGLTLLQIPEGVDWDGEVVKVVVGIAGKDGEHLDLLSKIAITFSEEENVDRIVQAKSAEEIKQVFEEADA | not soluble
24 | MSELILHHYPTSLFAEKARLMLGFKGVNWRSVTIPSIMPKPDLTALTGGYRKTPVLQIGADIYCDTALMARRLEQEKASPAFYPQGQEFAVAGLAAWADSVLFLHAVSLVFQPESMAVRFAKVPPDAAKAFIADRSMLFNGGTASRPPVEQVKHQWPTFMSRLESQLSHGGDFLFGAPSIADFSVAHTLWFLKQTPVTAPFVDDYPSVSVWLDRVLGFGHGSLSDLSSAAAIEIASNATPAPLPDETFIDPNGFKAGDKVAIAAVDYGVEAVEGELMFTGREELILRREDNRAGVVHVHFPRLGFRVEKR | soluble
